{"source": "the DeepSol protein solubility set"}
{"assay": "soluble on expression in E. coli; label from the status in PepcDB or PDB records"}
{"sequence": "MTDSPSPIDSSFDASDVATPCTVIAAKISLRNRNGLEEDQENLDSFDAFTETHETQESKNIAHGEHEEDVSNIYVDDFSKEFGDTVSSVMEPLPKPLTFARTITKVYCHLDDQEHPYMVEVHVPPDCITLRDVKRKLMRTNFKYYCIALDPDTGLEVKAEVRDDSRRLYPLKNGRFELYLLTVEGSVHSDTSSGRHRRKQDGSSKGSSGSREYLRAAHHYDNPTPFSDDESQASSLPTYVKKAHAYNRKHAPQAYERHLPHMKHNNRHNHHRQNHYEESTFDVTTESDDHYRDGVTYYDEDEDDSRSINTDLTSVSQVHLKQKWRQQQKEMRNKWKRMPSISTASSSFSSITESSMGLEVITVRLNLETIPLGMTPSGHTNARGDAGLYVGDIQDRGAVALDGRIDIGDMIVGINEISLGNYSNKEAVQLLREAVQRQYLTLTIAKTGDPKQNAFPRNPRAEPIRPIDPNEWVKHATNAMKAMPSISEGSGLDIKDRYWFKIPIPMSFLGTDLVEWLVKHVQGLETKKKAREFAEEMLKLGYIRPGVGKQSFTKECYYVMGDECADYTQLRGPDGGYKYPQSHASSASGHSSNNLIFPPSMYPPQPPTAGAVQSSKFEGREMIREVKRVGVVEEAREGTSNYHGSLHHSAVGLV", "soluble on expression in E. coli": "soluble"}
{"sequence": "GPGSMNCVQQGKVNVIADNLIPDGKMTEMIIVMKSSVSARANGECLPCDAAQLCEDLTEDIIPYVDNHYRTDADRDNRAIAGLYMGSIQASRLCITRHDLFAYPGMFSGFLSSNWNGIGTDSDHIEALRCDPAAFQAAMKVLFRCIGDDNTYRAAFEADNALLAELGAACERRIYAGSHSWQVWRQAAADFPPMLFKDLSFFPRH", "soluble on expression in E. coli": "not soluble"}
{"sequence": "MEKETLFIAFSTQKGGAGKTTLTVLVASYLHYVKGMNVAVVDCDYPQHSIAEMRKRDLKTVMEDEHYKLMAYRQLQRIRKKAYPVAESTAEDAVTKADELLEKMPETDIVFFDLPGTVNSTGVLNTLVNMDYVFSPIAADRVVMESTLRFASRLNDTLIATGKTNIKGLYLLWNMVDGREKSELYKVYEQVIGELGLKVLKTFLPDSKRFRRELTGGHRALFRSTLFPADGTLVKGSNLKEITEELLSIIRK", "soluble on expression in E. coli": "not soluble"}
{"sequence": "MITQGPNLIGIHANEKENIETKKFVNWFLNQSITDWNSNNQQKNSDQTTKTAAEYFTDQASYILPLKEKFNKSSDLELKGSSSSSNLTTSSASASLLISNNSSTASSPAPKKTNNNSNTFTAKALELFQQAANNEIIPFSDPSDFRNGTFRNNISSSFNAAVNSK", "soluble on expression in E. coli": "soluble"}
{"sequence": "MRSAFRVIRTVREKHACTQCDAIVQAPAPSRPIERGIAGPGLLARVLTSKYAEHTPLYRQSEIYGRQGVELSRSLLSGWVDACCRQLSPLEEALHGYVLTDGKLHADDTPVPVLLPGNKKTKTGRLWTYVRDDRNAGSTLAPAVWFAYSPDRKGIHPQTHLAGFSGVLQADAYAGFNELYRDGRITEAACWAHARRKIHDVHVRTPSALTEEALKRIGELYAIEAEIRGMTAEQRLAERQLKTKPLLKSLESWLREKMKTLSRHSELAKAFAYALNQWPALTYYADDGWAEADNNIAENALRMVSLGRKNYLFFGSDHGGERGALLYSLIGTCKLNGVEPESYLRYVLDVIADWPINRVGELLPWRVALPTE", "soluble on expression in E. coli": "not soluble"}
{"sequence": "FSRAIDEHFVELDHMAMSAKLAVFRDELRGLGSEQQMRRREAELLRELARHPDLGLRLNGPDGNLWFERLPQPAHPGLPANRELGAPLEPGNDASPRLTVILDISHHQHFLQRMRQL", "soluble on expression in E. coli": "not soluble"}
{"sequence": "MGSDKIHHHHHHMAYFMLLMTTPIQATIQQSMALAKAHYENFPVASVLLPKDLRAPVGLVYAFARQADDFADEGELSPEERLALLDGFRSQLDQIKHGATPDTPLFQALQAMIQERDLPLEPFYDLLSAFSQDVVKARYANFGEVIDYCRRSANPVGRLMLHLYKQATPRNVALSDAICTSLQLINFLQDVDVDYRKNRIYLPLDELQKYNITEQQIAGQHSGGTWSLFMEFQVNRTRKLLQSGAPLGLALPGRIGLEMRMIIAGGERILKKLHHVRGDVFNQRPTLKPTDWAYMLYRAVRKK", "soluble on expression in E. coli": "not soluble"}
{"sequence": "MADVDELEDPMEEMTSYTFARFLRSPETEAFVRNLDRPPQMPAMRFVYLYCLCKQIQEFSGETGFCDFVSSLVQENDSKDGPSLKSIYWGLQEATDEQRTVLCSYVESMTRGQSENLMWDILRNGIISSSKLLSTIKNGPTKVFEPAPISTNHYFGGPVAFGLRCEDTVKDIVCKLICGDASANRQFGFMISPTDGIFGVSLDLCVNVESQGDFILFTDRSCIYEIKCRFKYLFSKSEFDPIYPSYTALYKRPCKRSFIRFINSIARPTVEYVPDGRLPSEGDYLLTQDEAWNLKDVRKRKLGPGHDLVADSLAANRGVESMLYVMTDPSENAGRIGIKDRVPVNIFINPRHNYFYQVLLQYKIVGDYVRHSGGGKPGRDCSPRVNIVTAFFRKRSPLDPATCTLGSDLLLDASVEIPVAVLVTPVVLPDSVIRKTLSTAAGSWKAYADNTFDTAPWVPSGLFADDESTP", "soluble on expression in E. coli": "soluble"}
{"sequence": "MGSDKIHHHHHHVSDLLSQDEIDALLHGVDDVDDDDDLDAASQDARSYDFSSQDRIVRGRMPTLEIVNERFARHLRISMFNMMRRAAEVSINGVQMLKFGEYVHTLFVPTSLNMVRFSPLKGTALITMEARLVFILVDNFFGGDGRFHAKIEGREFTPTERRIVQLLLKIIFEDYKDAWAPVMDVEFDYLDSEVNPAMANIVSPTEVVVINSFHIEVDGGGGDFHITMPYSMIEPIRELLDAGVQSDKQDTDMRWSQALHDEIMDVKVGFDACVVEHELTLKDVMNFKAGDIIPVELPEYIMMKIEDLPTYRCKMGRSRDNLALKIYEKIPRPETVKTELQLVTRKGKARDISEL", "soluble on expression in E. coli": "not soluble"}
{"sequence": "MLRVRCLRGGSRGAEAVHYIGSRLGRTLTGWVQRTFQSTQAATASSRNSCAADDKATEPLPKDCPVSSYNEWDPLEEVIVGRAENACVPPFTIEVKANTYEKYWPFYQKQGGHYFPKDHLKKAVAEIEEMCNILKTEGVTVRRPDPIDWSLKYKTPDFESTGLYSAMPRDILIVVGNEIIEAPMAWRSRFFEYRAYRSIIKDYFHRGAKWTTAPKPTMADELYNQDYPIHSVEDRHKLAAQGKFVTTEFEPCFDAADFIRAGRDIFAQRSQVTNYLGIEWMRRHLAPDYRVHIISFKDPNPMHIDATFNIIGPGIVLSNPDRPCHQIDLFKKAGWTIITPPTPIIPDDHPLWMSSKWLSMNVLMLDEKRVMVDANEVPIQKMFEKLGITTIKVNIRNANSLGGGFHAWTCDVRRRGTLQSYLD", "soluble on expression in E. coli": "soluble"}
{"sequence": "MSSLADLINLDLSDSTDQIIAEYIWIGGSGLDMRSKARTLPGPVTDPSQLPKWNYDGSSTGQAPGDDSEVIIYPQAIFKDPFRRGNNILVMCDAYTPAGEPIPTNKRHAAAKIFEDPSVVAEETWYGIEQEYTLLQKDIKWPVGWPVGGFPGPQGPYYCGVGADKAFGRDIVDSHYKACLYAGINVSGTNGEVMPGQWEFQVGPTVGIAAADQVWVARYILERITELAGVVLSLDPKPIPGDWNGAGAHTNYSTKSMREDGGYEVIKKAIEKLGLRHKEHIAAYGEGNERRLTGKHETADINTFLWGVANRGASIRVGRDTEQAGKGYFEDRRPASNMDPYTVTSMIAESTILWKP", "soluble on expression in E. coli": "soluble"}
{"sequence": "MKNKDSLHVSRRRFLAQLGGLTVAGMLGPSLLTPRSARAADAVAPGAATKEGILTGSHWGAIRATVVDGRFVAAKPFEQDKYPSKMIAGLPDHVHNAARIRYPMVRVDWMRKGHQSDTSQRGDNRFVRVSWDEALDLFYQELERVQKTYGPSALLTASGWQSTGMFHNASGMLARAIALHGNSVSTGGDYSTGAAQVILPRVVGSMEVYEQQTSWPLVLQNSKTIVLWGSDMVKNQQANWWCPDHDVYQYYEQLKEKVASGAISVISIDPVVTSTHDYLGRDKVKHIAINPQTDVPLQLALAHTLYSEKLYDKNFLDNYCVGFDQFLPYLLGEKDGQPKDAAWAEKLCGIDADTIRALARQMAGDRTQIIAGWCVQRMQHGEQWSWMVVVLAAMLGQIGLPGGGFGFGWHYNGAGTPGRKGIILSGFSGSTTVPPVHDSTDYKGYSSTIPIARFMDAILEPGKIINWNGKSVKLPPLKMCVFAGTNPFHRHQQINRIIEGWRKLETVIAIDNQWTSTCRFADIVLPATTQFERNDLDQFGNHSNRGIIAMKQVVSPQFEARNDFDIFRDLCRRFNREAAFTEGLDEMGWLKRIWQEGSQQGKGRGIHLPIFEVFWNQQEYIEFDHPQMFVRHQAFREDPDLEPLGTPSGLIEIYSKTIADMQYDDCQGHPMWFEKIERSHGGPGSQRWPLHLQSVHPDFRLHSQLCESETLRQQYAVGGKEPVFINPQDASARGIRNGDIVRVFNARGQVLAGAVVSDRYAPGVARIHEGAWYDPDKGGDLNALCKYGNPNVLTLDIGTSQLAQATSAHTTLVEIEKYTGPMDNVTAFNGPVEMVAQCEYVPASQGNPHD", "soluble on expression in E. coli": "not soluble"}
{"sequence": "MAPASILCCDTDNRRPQMKLTGGCYCGALRYEAEGEPMLKAQCHCRACQSYSGGAPNLFMVMPAAGFRYVKGTPKSFRLEDRPDRVTRDFCATCGTGVASHRPGLPAVILKIGTLDDPALFKGPRAAVFAAEKQAFHIIPEGVHAFDGLPPT", "soluble on expression in E. coli": "not soluble"}
{"sequence": "MNPLKAGDIAPKFSLPDQDGEQVNLTDFQGQRVLVYFYPKAMTPGCTVQACGLRDNMDELKKAGVDVLGISTDKPEKLSRFAEKELLNFTLLSDEDHQVCEQFGVWGEKSFMGKTYDGIHRISFLIDADGKIEHVFDDFKTSNHHDVVLNWLKEHA", "soluble on expression in E. coli": "soluble"}
{"sequence": "MGSDKIHHHHHHMASIRELHEQLVKKERSAVEITQETLDHIQELEPKLHSFLHITAQQALEQARAVDAKIAAGEEIGLLAGIPIGVKDNMCTKGIPTTCASRILENFVPPYESTVTQKLLDAGAVVVGKTNLDEFAMGSSTENSAYQVTANPWDLSRVPGGSSGGSAAAVAAEECVVALGSDTGGSIRQPASFCGVVGLKPTYGLVSRYGLVAYASSLDQIGPFGKSVEDTAILLKAIAGYDHQDSTSLKVEIPDYVASLKPDLKARSKLRIGIIKETFGEGLDSVVEQAVTKAIEQLQRLGAEVHVISCPNFRYGVPSYYIIAPSEASANLARYDGVKYGWRAPEGDNLLSMYKRTRATGFGAEVKRRIMIGTYALSAGYYDAYYLKAQKVRTLIKQDFENAFKNVDVLVSPTAPTTAFKAGEKTADPISMYLNDLMTIPVNLAGLPGLSVPCGFDEQGLPIGLQLIGKVLREDQLLQIAYAYEQSTSWHLSQPKIS", "soluble on expression in E. coli": "not soluble"}
{"sequence": "QAMFERFTDRARRVIVLAQEEARMLNHNYIGTEHILLGLIHEGEGVAAKALESMGISLDAVRQEVEEIIGQGSQPTTGHIPFTPRAKKVLELSLREGLQMGHKYIGTEFLLLGLIREGEGVAAQVLVKLGADLPRVRQQVIQLLSG", "soluble on expression in E. coli": "soluble"}
{"sequence": "VSIDSSRRIIQAIEQNEFHLYCQKIIPAGSNQESSSYYEVLIRMAEEESNLIPPGAFLPFVEKYNLMPRLDSWVVEQVIHYLADQRADPRISFCINLARSTLIDPVFYDRVWKLLNAAGIEPQRICFEIETADVAANLLSAVQFVKKVQQSGCLVSLCSFNHDRGSFDLLKHIQADFLKIDGSLICNILRDAEDLKKVENIGKFARALKIRTIGELVETRNILEKLAKIGIDYAQGFIVGRPLPIEKIEYRADSMDDL", "soluble on expression in E. coli": "not soluble"}
{"sequence": "MPKLSIIIPAYNNAHLLPETLDSIFSQDCEPFELIVVDDGSTDNTRDVVEGYGRGIVYLWQENSGGCSKPRNVGIRHATGEYIAMFDSDDIMKPGKVRSQMDFLDRNPDVDFVFTDFCDFRGAEVLASHITTCPIFNSLPKQKVGEDAYVISSTAAYETLLVENFIGGSAMMFRKSLFNEAGPFDETLEVSEDIDFTLRVARTHALGFINRIGHHRRLHDGNMTSKAEKILTRSLRVFGGHLSAPKSSKAQQRLIDKVAGLHGALAYHYRENARYGEALAEYRASLSLRPACLGTYKAMAKLAVMALTSGGKLEHHHHHH", "soluble on expression in E. coli": "soluble"}
